Source: patent publication US20220372147A1 (UNIVERSIT T STUTTGART, published 2022)
Like-named read-outs stand apart in the source and are kept apart here.

Legend:
[1] = molecular target: T1, HER3 on HER3-expressing cancer cells (LIM1215, BT474) (UniProt P21860 20-1342, limits assumed); experiment: flow cytometry on HER3-expressing BT474 cells, PE anti-human Fc
T1 construct: whole, on cells; also called HER3-expressing LIM1215 cells; HER3-expressing BT474 cells

[2] = molecular target: T1, HER3 on HER3-expressing cancer cells …; experiment: cell-based or functional assay
[3] = molecular target: T1, HER3 on HER3-expressing cancer cells …; experiment: flow cytometry on HER3-expressing LIM1215 cells, PE anti-human Fc
[4] = molecular target: T2, CD3 on CD3-expressing Jurkat cells (human, UniProt P07766 23-207); experiment: flow cytometry on CD3-expressing Jurkat cells, PE anti-human Fc
T2 construct: whole, on cells
T2 sequence (P07766 23-207): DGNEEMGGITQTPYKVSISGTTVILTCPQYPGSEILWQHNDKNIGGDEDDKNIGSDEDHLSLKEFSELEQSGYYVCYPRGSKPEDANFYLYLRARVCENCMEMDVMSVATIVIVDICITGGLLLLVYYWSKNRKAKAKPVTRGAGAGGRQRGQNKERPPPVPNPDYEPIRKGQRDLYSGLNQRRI

[5] = molecular target: T1, HER3 on HER3-expressing cancer cells …; experiment: cell-based or functional assay; remark: listed apart in the source
[6] = molecular target: T3, Flag-tagged FAP protein, extracellular domain of FAP (aa 32-728) (UniProt Q12884 32-728); experiment: ELISA, immobilized FAP-Flag, anti-human Fc-HRP detection
T3 construct: range 32-728; also called FAP-Flag; not shown: Flag-tag

[7] = molecular target: T4, His-tagged HER3 protein, extracellular domain (ECD) of HER3 (aa 21-643) (UniProt P21860 21-643); experiment: ELISA, immobilized HER3-His, anti-human Fc-HRP detection
T4 construct: range 21-643; also called HER3-His; not shown: His-tag

[8] = molecular target: T5, mouse CD3 on murine spleenocytes (mouse, UniProt P22646 22-189); experiment: flow cytometry on murine spleenocytes (mouse CD3), PE anti-human Fc
T5 construct: whole, on cells; also called murine CD3-expressing murine spleenocytes; moCD3
T5 sequence (P22646 22-189): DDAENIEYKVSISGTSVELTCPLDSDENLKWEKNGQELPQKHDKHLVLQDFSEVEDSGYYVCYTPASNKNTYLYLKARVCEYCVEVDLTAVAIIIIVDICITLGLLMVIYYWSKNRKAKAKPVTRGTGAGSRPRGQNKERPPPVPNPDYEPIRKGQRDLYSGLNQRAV

[9] = molecular target: T6, FAP on FAP-expressing HT1080-FAP cells (UniProt Q12884 1-760, limits assumed); experiment: flow cytometry on FAP-expressing HT1080-FAP cells, PE anti-human Fc
T6 construct: whole, on cells

[10] = molecular target: T4, His-tagged HER3 protein, extracellular …; experiment: ELISA, immobilized HER3-His, anti-human Fc-HRP detection; remark: listed apart in the source
[11] = molecular target: T7, FcεRI Fc fusion protein comprising the extracellular region of FcεRI (human, UniProt P12319 26-205); experiment: ELISA, immobilized FcεRI-Fc, anti-human Fab detection
T7 construct: extracellular domain; also called FcεRT; FccRT; not shown: Fc part
T7 sequence (looked up): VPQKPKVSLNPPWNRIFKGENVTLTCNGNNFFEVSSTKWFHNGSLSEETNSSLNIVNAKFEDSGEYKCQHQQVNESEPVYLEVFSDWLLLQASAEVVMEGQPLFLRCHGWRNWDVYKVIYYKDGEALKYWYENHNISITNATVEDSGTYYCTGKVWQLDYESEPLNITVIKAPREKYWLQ

[12] = molecular target: T8, EGFR-Fc (UniProt P00533 25-645); experiment: bifunctional sandwich ELISA: immobilized EGFR-Fc, titrated eIg-Fab, then HER3-His as second antigen detected with anti-His-HRP
T8 construct: also called immobilized EGFR-Fc antigen; not shown: Fc part

B1: bispecific, trivalent eIg-Fab3 targeting HER3 and CD3 (bispecific antibody)
light 1: QAGLTQPPAVSVAPGQTASITCGRDNIGSRSVHWYQQKPGQAPVLVVYDDSDRPAGIPERFSGSNYENTATLTISRVEAGDEADYYCQVWGITSDHVVFGGGTKLTVLGQPKAAPSVTLFPPSSEELQANKATLVCLISDFYPGAVTVAWKADSSPVKAGVETTTPSKQSNNKYAASSYLSLTPEQWKSHRSYSCQVTHEGSTVEKTVAPTECS
light 2: not shown
heavy 1: QVQLVQSGAEVKKPGSSVKVSCKASGGTFSGYTMNWVRQAPGQGLEWMGLINPYKGVSTYNGKFKDRVTITADKSTSTAYMELSSLRSEDTAVYYCARSGYYGDSDWYFDVWGQGTLVTVSSDFTPPTVKILQSSCDGGGHFPPTIQLLCLVSGYTPGTINITWLEDGQVMDVDLSTASTTQEGELASTQSELTLSQKHWLSDRTYTCQVTYQGHTFEDSTKKSADSNGGSGGGGSGGQVQLQQSGPGLVKPSQTLSLTCAISGDSVSSNRAAWNWIRQSPSRGLEWLGRTYYRSKWYNDYAQSLKSRITINPDTPKNQFSLQLNSVTPEDTAVYYCARDGQLGLDALDIWGQGTMVTVSSASTKGPSVFPLAPSSKSTSGGTAALGCLVKDYFPEPVTVSWNSGALTSGVHTFPAVLQSSGLYSLSSVVTVPSSSLGTQTYICNVNHKPSNTKVDKKVEPKSCGTDKTHTCPPCPAPPVAGPSVFLFPPKPKDTLMISRTPEVTCVVVDVSHEDPEVKFNWYVDGVEVHNAKTKPREEQYNSTYRVVSVLTVLHQDWLNGKEYKCKVSNKGLPSSIEKTISKAKGQPREPQVYTLPPCRDELTKNQVSLWCLVKGFYPSDIAVEWESNGQPENNYKTTPPVLDSDGSFFLYSKLTVDKSRWQQGNVFSCSVMHEALHNHYTQKSLSLSPGK
heavy 2: QVQLQQSGPGLVKPSQTLSLTCAISGDSVSSNRAAWNWIRQSPSRGLEWLGRTYYRSKWYNDYAQSLKSRITINPDTPKNQFSLQLNSVTPEDTAVYYCARDGQLGLDALDIWGQGTMVTVSSASTKGPSVFPLAPSSKSTSGGTAALGCLVKDYFPEPVTVSWNSGALTSGVHTFPAVLQSSGLYSLSSVVTVPSSSLGTQTYICNVNHKPSNTKVDKKVEPKSCGTDKTHTCPPCPAPPVAGPSVFLFPPKPKDTLMISRTPEVTCVVVDVSHEDPEVKFNWYVDGVEVHNAKTKPREEQYNSTYRVVSVLTVLHQDWLNGKEYKCKVSNKGLPSSIEKTISKAKGQPREPQVCTLPPSRDELTKNQVSLSCAVKGFYPSDIAVEWESNGQPENNYKTTPPVLDSDGSFFLVSKLTVDKSRWQQGNVFSCSVMHEALHNHYTQKSLSLSPGK
Question: How did the EC50 [1] turn out when B1 was run?
Answer: 0.2 nM

Question: And the “potency in cell killing relative to eIg-Fab4” value [2]?
Answer: ~4 fold

Question: And the EC50 [3]?
Answer: 0.4 nM

Question: What about the EC50 [4] of the same binder?
Answer: 1.1 nM

Question: And the “EC50 value in cell killing (PBMC-mediated cytotoxicity on BT-474 cells, crystal violet)” value [5]?
Answer: 0.5 nM

Question: What about the “EC50 value in cell killing (PBMC-mediated cytotoxicity on LIM1215 cells, crystal violet)” value [5] of the same binder?
Answer: 0.4 nM

B2: bivalent and bispecific eIg molecule targeting HER3 and FAP (bispecific antibody)
light 1: B1 light 1
heavy 1: not shown
light 2: DIQMTQSPSSLSASVGDRVTITCRASKSVSTSAYSYMHWYQQKPGKAPKLLIYLASNLESGVPSRFSGSGSGTDFTLTISSLQPEDFATYYCQHSRELPYTFGQGTKLEIKRDFTPPTVKILQSSSDGGGHFPPTIQLLCLVSGYTPGTIQITWLEDGQVMDVDLSTASTTQEGELASTQSELTLSQKHWLSDRTYTCQVTYQGHTFEDSTKKCADSN
heavy 2: not shown
notes: Four different polypeptide chains; one site for HER3, one for FAP; also called eIg antibody targeting HER3 and FAP
Question: B2 was tested. Which EC50 [6] did it give?
Answer: 7.6 nM

Question: And the EC50 [7]?
Answer: 3.4 nM

B3: bivalent and bispecific eIg molecule targeting FAP and mouse CD3, molecule I (bispecific antibody)
light 1: DIQMTQSPSSLSASVGDRVTITCRASKSVSTSAYSYMHWYQQKPGKAPKLLIYLASNLESGVPSRFSGSGSGTDFTLTISSLQPEDFATYYCQHSRELPYTFGQGTKLEIKRRTVAAPSVFIFPPSDEQLKSGTASVVCLLNNFYPREAKVQWKVDNALQSGNSQESVTEQDSKDSTYSLSSTLTLSKADYEKHKVYACEVTHQGLSSPVTKSFNRGEC
heavy 1: QVQLVQSGAEVKKPGASVKVSCKASGYTFTENIIHWVRQAPGQGLEWMGWFHPGSGSIKYNEKFKDRVTMTADTSTSTVYMELSSLRSEDTAVYYCARHGGTGRGAMDYWGQGTLVTVSSASTKGPSVFPLAPSSKSTSGGTAALGCLVKDYFPEPVTVSWNSGALTSGVHTFPAVLQSSGLYSLSSVVTVPSSSLGTQTYICNVNHKPSNTKVDKKVEPKSCGTDKTHTCPPCPAPPVAGPSVFLFPPKPKDTLMISRTPEVTCVVVDVSHEDPEVKFNWYVDGVEVHNAKTKPREEQYNSTYRVVSVLTVLHQDWLNGKEYKCKVSNKGLPSSIEKTISKAKGQPREPQVCTLPPSRDELTKNQVSLSCAVKGFYPSDIAVEWESNGQPENNYKTTPPVLDSDGSFFLVSKLTVDKSRWQQGNVFSCSVMHEALHNHYTQKSLSLSPGK
light 2: EVQLVESGGGLVQPGKSLKLSCEASGFTFSGYGMHWVRQAPGRGLESVAYITSSSINIKYADAVKGRFTVSRDNAKNLLFLQMNILKSEDTAMYYCARFDWDKNYWGQGTMVTVSSDFTPPTVKILQSSSDGGGHFPPTIQLLCLVSGYTPGTIQITWLEDGQVMDVDLSTASTTQEGELASTQSELTLSQKHWLSDRTYTCQVTYQGHTFEDSTKKCADSN
heavy 2: DIQMTQSPSSLPASLGDRVTINCQASQDISNYLNWYQQKPGKAPKLLIYYTNKLADGVPSRFSGSGSGRDSSFTISSLESEDIGSYYCQQYYNYPWTFGPGTKLEIKDFTPPTVKILQSSCDGGGHFPPTIQLLCLVSGYTPGTINITWLEDGQVMDVDLSTASTTQEGELASTQSELTLSQKHWLSDRTYTCQVTYQGHTFEDSTKKSADSNGTDKTHTCPPCPAPPVAGPSVFLFPPKPKDTLMISRTPEVTCVVVDVSHEDPEVKFNWYVDGVEVHNAKTKPREEQYNSTYRVVSVLTVLHQDWLNGKEYKCKVSNKGLPSSIEKTISKAKGQPREPQVYTLPPCRDELTKNQVSLWCLVKGFYPSDIAVEWESNGQPENNYKTTPPVLDSDGSFFLYSKLTVDKSRWQQGNVFSCSVMHEALHNHYTQKSLSLSPGK
notes: In molecule I the 2C11 VH sits on the 'light chain' and the VL on the Fc-bearing chain; also called eIg FAP × moCD3 I
Question: How did the EC50 [8] turn out when B3 was run?
Answer: 7.3 nM

Question: And the EC50 [9]?
Answer: 2.9 nM

B4: bivalent and bispecific eIg molecule targeting FAP and mouse CD3, molecule II (bispecific antibody)
light 1: B3 light 1
heavy 1: B3 heavy 1
light 2: DIQMTQSPSSLPASLGDRVTINCQASQDISNYLNWYQQKPGKAPKLLIYYTNKLADGVPSRFSGSGSGRDSSFTISSLESEDIGSYYCQQYYNYPWTFGPGTKLEIKDFTPPTVKILQSSSDGGGHFPPTIQLLCLVSGYTPGTIQITWLEDGQVMDVDLSTASTTQEGELASTQSELTLSQKHWLSDRTYTCQVTYQGHTFEDSTKKCADSN
heavy 2: EVQLVESGGGLVQPGKSLKLSCEASGFTFSGYGMHWVRQAPGRGLESVAYITSSSINIKYADAVKGRFTVSRDNAKNLLFLQMNILKSEDTAMYYCARFDWDKNYWGQGTMVTVSSDFTPPTVKILQSSCDGGGHFPPTIQLLCLVSGYTPGTINITWLEDGQVMDVDLSTASTTQEGELASTQSELTLSQKHWLSDRTYTCQVTYQGHTFEDSTKKSADSNGTDKTHTCPPCPAPPVAGPSVFLFPPKPKDTLMISRTPEVTCVVVDVSHEDPEVKFNWYVDGVEVHNAKTKPREEQYNSTYRVVSVLTVLHQDWLNGKEYKCKVSNKGLPSSIEKTISKAKGQPREPQVYTLPPCRDELTKNQVSLWCLVKGFYPSDIAVEWESNGQPENNYKTTPPVLDSDGSFFLYSKLTVDKSRWQQGNVFSCSVMHEALHNHYTQKSLSLSPGK
notes: also called eIg FAP × moCD3 II; second molecule
Question: With B4 as the binder, how does the EC50 [8] read?
Answer: 24.2 nM

Question: What about the EC50 [9] of the same binder?
Answer: 2.7 nM

B5: tetravalent and bispecific eIg-Fab molecule targeting HER3 and EGFR (bispecific antibody)
light 1: QAGLTQPPAVSVAPGQTASITCGRDNIGSRSVHWYQQKPGQAPVLVVYDDSDRPAGIPERFSGSNYENTATLTISRVEAGDEADYYCQVWGITSDHVVFGGGTKLTVLGTDFTPPTVKILQSSSDGGGHFPPTIQLLCLVSGYTPGTIQITWLEDGQVMDVDLSTASTTQEGELASTQSELTLSQKHWLSDRTYTCQVTYQGHTFEDSTKKCADSN
light 2: DIQLTQSPSFLSASVGDRVTITCRASQSIGTNIHWYQQKPGKAPKLLIKYASESISGVPSRFSGSGSGTEFTLTISSLQPEDFATYYCQQNNNWPTTFGAGTKLEIKRTVAAPSVFIFPPSDEQLKSGTASVVCLLNNFYPREAKVQWKVDNALQSGNSQESVTEQDSKDSTYSLSSTLTLSKADYEKHKVYACEVTHQGLSSPVTKSFNRGEC
heavy: not shown
notes: Homodimerizing Fc; also called eIg-Fab EGFRxHER3
Question: For B5, which EC50 [10] is on record?
Answer: 3.3 nM

Question: Does B5 bind [11]?
Answer: no binding (tested: 50 nM)

Question: And the EC50 [12]?
Answer: 0.23 nM
